One block for each binder: values may come before it.
Tests used:
[1] = target: T1, recombinant Human Fc gamma RIIA/CD32a (H167) Protein (R&D systems, 9595-CD-050) (human, UniProt P12318 36-218); assay: ELISA; antibody coated, receptor titrated, anti-His-HRP
T1 construct: detected with an anti-His antibody; tag not described; also called FcγRIIa (CD32a)
T1 sequence (looked up): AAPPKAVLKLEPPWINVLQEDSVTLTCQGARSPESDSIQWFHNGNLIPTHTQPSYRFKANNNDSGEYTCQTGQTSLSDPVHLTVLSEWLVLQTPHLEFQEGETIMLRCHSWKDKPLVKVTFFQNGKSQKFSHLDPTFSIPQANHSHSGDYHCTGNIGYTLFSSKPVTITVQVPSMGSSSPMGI
Protocol: (§1) The interaction of the unmodified and of conjugated antibodies with human Fc gamma receptors I (FcγRI/CD64), with human Fc gamma receptors IIa (FcγRIIa/CD32a), with inhibitory human Fc gamma receptors IIb (FcγRIIb/CD32b), and with human Fc gamma receptors III FcγRIIIa/CD16 were measured by ELISA.
(§2) Briefly, Corning high-binding half-area plates (Fisher Scientific, Reinach, Switzerland) were coated overnight at 4° C. with 25 μl of unmodified and of conjugated anti-PD1 antibodies at 2.5 μg/ml in PBS. Plates were then washed four times with 100 μl of PBS-0.02% Tween20. Plates surfaces were blocked with 25 μl of PBS-0.02% Tween20-1% BSA at 37° C. during 1 h. Plates were then washed four times with 100 μl of PBS-0.02% Tween20. Then twenty-five microliters of either recombinant Human Fc gamma RI/CD64 Protein (R&D systems, 1257-FC-050, CF), recombinant Human Fc gamma RIIA/CD32a (H167) Protein (R&D systems, 9595-CD-050, CF), recombinant Human Fc gamma RIIB/CD32b Avi-tag Protein (R&D systems, AVI1875-050, CF), or recombinant Human Fc gamma RIIIA/CD16a Protein (R&D systems, 4325-FC-050; CF) were added in five-fold serial dilutions ranging from 1000 nM to 0.001 nM into PBS-0.02% Tween20-0.1% BSA and incubated at 37° C. during 2 h. Plates were then washed four times with 100 μl of PBS-0.02% Tween20. Twenty-five microliters of a 1/500 HRP-anti-His antibody in PBS—0.02% Tween20-0.1% BSA (R&D systems, anti-HIS—HRP Ab, #MAB050H) were added to each well and plates were incubated at Room Temperature during 1 h. Plates were then washed four times with 100 μl of PBS-0.02% Tween20. Fifty microliters of TMB substrate reagent (#CL07, Merck, Buchs, Switzerland) were added to each well and incubated at 37° C. during 5 min. After 5 min at 37° C., Horseradish peroxidase reaction was stopped by adding 50 μl/well of 0.5M H2SO4 stop solution. ELISA signal was then measured at 450 nm on an EnSpire plate reader from Perkin Elmer (Schwerzenbach, Switzerland). Binding Affinity of Reference Antibodies and Immunocytokines with Human Fc Gamma Receptors as Measured by ELISA

[2] = target: T2, recombinant Human Fc gamma RIIIA/CD16a Protein (R&D systems, 4325-FC-050) (human, UniProt P08637 17-208); assay: as above
T2 construct: detected with an anti-His antibody; tag and allotype not described; also called FcγRIIIa (CD16)
Protocol: as §1, §2

[3] = target: T3, recombinant Human Fc gamma RIIB/CD32b Avi-tag Protein (R&D systems, AVI1875-050) (human, UniProt P31994 46-217); assay: as above
T3 construct: also called FcγRIIb (CD32b); not shown: Avi-tag
T3 sequence (looked up): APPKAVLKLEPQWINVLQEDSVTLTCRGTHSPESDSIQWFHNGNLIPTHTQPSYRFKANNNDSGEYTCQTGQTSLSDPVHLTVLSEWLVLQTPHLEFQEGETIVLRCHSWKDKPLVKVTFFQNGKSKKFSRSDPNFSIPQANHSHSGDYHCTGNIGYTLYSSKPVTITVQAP
Protocol: as §1, §2

[4] = target: T4, recombinant Human Fc gamma RI/CD64 Protein (R&D systems, 1257-FC-050) (human, UniProt P12314 16-288); assay: as above
T4 construct: detected with an anti-His antibody; tag not described; also called FcγRI/CD64; human Fc gamma receptor I
Protocol: as §1, §2

[5] = target: T5, recombinant biotinylated human FcRn (human, UniProt P55899 24-297; P61769 21-119, limits assumed, biotinylated); assay: AlphaLISA competition at pH 6; competitor: human IgG on acceptor beads
T5 construct: also called human neonatal Fc receptor (FcRn)
Protocol: The interaction of the unmodified and of conjugated anti-PD1 antibodies with the human neonatal Fc receptor (FcRn) at pH 6 was measured using the AlphaLISA® Human FcRn Binding Kit (AL3095C) from Perkin Elmer (Schwerzenbach, Switzerland).
After 90 min at 23° C. in the dark, AlphaLISA® signal was measured on an EnSpire plate reader (Excitation at 680 nm, Emission at 615 nm) from Perkin Elmer (Schwerzenbach, Switzerland). Binding Affinity of Reference Antibodies and Immunocytokines with the Human Neonatal Fc Receptor as Measured by AlphaLISA

[6] = target: T6, His-tagged human PD1 (R&D #8986-PD) (human, UniProt Q15116 25-167); assay: BLI (Octet), antibody on AHC sensor, His-tagged PD-1 as analyte
T6 construct: bought; not shown: His tag
Text: (§3) Based on Bio-Layer Interferometry (BLI), Octet® BLI systems enable real-time, label-free analysis for the determination of kinetics and affinity of a ligands to its receptor. Here anti-human IgG FC Capture (AHC) sensors are loaded with the test items (ICs). Sensors are first dipped into a kinetic buffer for baseline measurement, then into an analyte solution, here human PD1, to allow association and again into a buffer solution where the analyte is allowed to come off the ligand (dissociation). Several concentrations of analyte are run in parallel and enable the calculation of affinity parameters: Ka, Kd, KD.
(§4) Typically, first, the sensors are regenerated by 3 cycles of dipping into 10 mM glycine solution at pH=2 for 20 seconds, followed by 20 second kinetics buffer and a final 60 seconds in kinetics buffer to establish the initial signal (baseline). Second, the loading column will contain the ligand, here the unmodified PD-1 antibodies and of IL-18 polypeptide conjugated PD-1 antibody, at a fixed concentration determined in the loading scout experiment (20 ug/mL). Then another wash/baseline step allows non immobilized proteins to be washed away. The association column will contain the 2-fold dilution series of the analyte (His-tagged human PD1, R&D #8986-PD) including a no analyte control. […] The dissociation designates the sensors to return to previous baseline column with kinetics buffer. After acquisition, the data is analyzed with Data Analysis Studio software (Sartorius). Data sets are first preprocessed by subtracting references samples and aligning curves on the baseline step. Group fitting is then applied to the data series and kinetics parameters are calculated.

[7] = target: T7, Biotinylated Recombinant Human PD-1/CD279-Fc Chimera, carrier-free (Biolegend #789406) (human, UniProt Q15116 25-167, biotinylated); assay: ELISA; antibody coated, biotinylated PD-1-Fc titrated
T7 construct: bought; also called recombinant biotinylated human PD-1; Fc part of the bought chimera not given
Protocol: (§5) The interaction of the unmodified antibodies and corresponding IL-18 immunocytokines with relevant immune cell associated antigen are measured by ELISA assay. For these studies, Corning high-binding half-area plates (Fisher Scientific, Reinach, Switzerland) are coated overnight at 4° C. with 25 μl of unmodified antibodies corresponding IL-18 immunocytokines at 5 μg/ml in PBS. Plates are then washed four times with 100 μl of PBS-0.02% Tween20. Plate surfaces are blocked with 25 μl of PBS-0.02% Tween20-1% BSA at 37° C. during 1 h. Plates are then washed four times with 100 μl of PBS-0.02% Tween20. […] Plates are then washed four times with 100 μl of PBS-0.02% Tween20. Twenty-five microliters of Streptavidin-Horseradish peroxidase (#RABHRP3, Merck, Buchs, Switzerland) diluted at 1:500 into PBS-0.02% Tween20-0.1% BSA are added to each well and incubated at Room Temperature during 30 min. Plates are then washed four times with 100 μl of PBS-0.02% Tween20. Fifty microliters of TMB substrate reagent (#CL07, Merck, Buchs, Switzerland) are added to each well and incubated at 37° C. during 5 min. After 5 min at 37° C., Horseradish peroxidase reaction is stopped by adding 50 μl/well of 0.5M H_2SO_4 stop solution. ELISA signal is then measured at 450 nm on an ENSPTRE® plate reader from Perkin Elmer (Schwerzenbach, Switzerland).

[8] = target: T7, Biotinylated Recombinant Human …; assay: ELISA: antibody coated on the plate (5 ug/ml), biotinylated human PD-1/CD279-Fc titrated in solution (x-axis), streptavidin-HRP/TMB, 450 nm
Protocol: as §5

[9] = target: T7, Biotinylated Recombinant Human …; assay: ELISA: immunocytokine coated on the plate (5 ug/ml), biotinylated human PD-1/CD279-Fc titrated in solution (x-axis), streptavidin-HRP/TMB, 450 nm
Protocol: as §5

[10] = target: T6, His-tagged human PD1 (R&D #8986-PD); assay: BLI (Octet), immunocytokine on AHC sensor, His-tagged PD-1 as analyte
Text: as §3, §4

[11] = target: T7, Biotinylated Recombinant Human …; assay: ELISA; immunocytokine coated, biotinylated PD-1-Fc titrated
Protocol: as §5

Kd [1]: 160 nM
Kd [2]: 234 nM
Kd [3]: 233 nM
Kd [4]: 2.34 nM
Kd [5]: 8.31 nM
B1: Durvalumab/Imfinzi (antibody, human IgG1, kappa)
heavy: EVQLVESGGGLVQPGGSLRLSCAASGFTFSRYWMSWVRQAPGKGLEWVANIKQDGSEKYYVDSVKGRFTISRDNAKNSLYLQMNSLRAEDTAVYYCAREGGWFGELAFDYWGQGTLVTVSSASTKGPSVFPLAPSSKSTSGGTAALGCLVKDYFPEPVTVSWNSGALTSGVHTFPAVLQSSGLYSLSSVVTVPSSSLGTQTYICNVNHKPSNTKVDKRVEPKSCDKTHTCPPCPAPEFEGGPSVFLFPPKPKDTLMISRTPEVTCVVVDVSHEDPEVKFNWYVDGVEVHNAKTKPREEQYNSTYRVVSVLTVLHQDWLNGKEYKCKVSNKALPASIEKTISKAKGQPREPQVYTLPPSREEMTKNQVSLTCLVKGFYPSDIAVEWESNGQPENNYKTTPPVLDSDGSFFLYSKLTVDKSRWQQGNVFSCSVMHEALHNHYTQKSLSLSPGK
light: EIVLTQSPGTLSLSPGERATLSCRASQRVSSSYLAWYQQKPGQAPRLLIYDASSRATGIPDRFSGSGSGTDFTLTISRLEPEDFAVYYCQQYGSLPWTFGQGTKVEIKRTVAAPSVFIFPPSDEQLKSGTASVVCLLNNFYPREAKVQWKVDNALQSGNSQESVTEQDSKDSTYSLSSTLTLSKADYEKHKVYACEVTHQGLSSPVTKSFNRGEC
notes: also called MEDI-4736

Kd [6]: 23.5 nM
koff [6]: 0.0077 s⁻¹
kon [6]: 342000 M⁻¹ s⁻¹
Kd [7]: 0.0407 nM
EC50 (read off the curve) [8]: ~0.06 nM
B2: LZM-009 (antibody, V domains shown)
VH: QVQLVQSGAEVKKPGASVKVSCKASGYTFTSYYMYWVRQAPGQGLEWMGGVNPSNGGTNFNEKFKSRVTITADKSTSTAYMELSSLRSEDTAVYYCARRDYRYDMGFDYWGQGTTVTVSS
VL: EIVLTQSPATLSLSPGERATISCRASKGVSTSGYSYLHWYQQKPGQAPRLLIYLASYLESGVPARFSGSGSGTDFTLTISSLEPEDFATYYCQHSRELPLTFGTGTKVEIK
notes: also called LZM-009 anti-PD-1 antibody

EC50 (read off the curve) [9]: ~0.07 nM
Kd [10]: 11.5 nM
koff [10]: 0.00479 s⁻¹
kon [10]: 454000 M⁻¹ s⁻¹
Kd [11]: 0.0467 nM
B3: Composition A (LZM-009 conjugated to IL-18 polypeptide of SEQ ID NO: 30) (other)
VH: QVQLVQSGAEVKKPGASVKVSCKASGYTFTSYYMYWVRQAPGQGLEWMGGVNPSNGGTNFNEKFKSRVTITADKSTSTAYMELSSLRSEDTAVYYCARRDYRYDMGFDYWGQGTTVTVSS
VL: EIVLTQSPATLSLSPGERATISCRASKGVSTSGYSYLHWYQQKPGQAPRLLIYLASYLESGVPARFSGSGSGTDFTLTISSLEPEDFATYYCQHSRELPLTFGTGTKVEIK
chain: YFGKLKSKLSIIRNLNDQVLFIDQGNRPLFEDMTDSDARDNAPRTIFIISMYADSQPRGMAVAISVKCEKISTLSAENKIISFKEMNPPDNIKDTKSDIIFFQRSVPGHDNKMQFESSSYEGYFLAAEKERDLFKLILKKEDELGDRSIMFTVQNED
